Values belong to the molecule of their own block, whether it stands above or below them. Starred links: 1 amine or outer side, 2 acyl side, 3 side chain; linkers in the order of their positions; H or OH if unused. Positions of bridges follow the written chain, without caps; N, C: chain ends. Non-standard residues stand in square brackets, D forms with d. No end group written: not given here. 4‑methoxycoumarin = 4-Methoxycoumarin, an N-terminal optical probe label; Phe(4-OMe) = COc1ccc(C[C@H](N[*:1])C(=O)[*:2])cc1; Bip = N[C@@H](Cc1ccc(-c2ccccc2)cc1)C(=O)O; Tyr(3-I) = N[C@@H](Cc1ccc(O)c(I)c1)C(=O)O; Hyp = O=C(O)[C@@H]1C[C@@H](O)CN1; Cha = N[C@@H](CC1CCCCC1)C(=O)O; Ahx = NCCCCCC(=O)O; βAla = NCCC(=O)O
Experiments:
[1] = target: DD(E) fragment of fibrin; test: affinity of fluorophore-labelled peptide; target taken as fibrin DD(E) fragment
[2] = target: DD(E) fragment of fibrin; test: affinity of optical contrast agent to fibrin DD(E) fragment
[3] = target: T1, DD(E) fragment of fibrin; test: affinity to DD(E) fragment of fibrin
T1 chain 1: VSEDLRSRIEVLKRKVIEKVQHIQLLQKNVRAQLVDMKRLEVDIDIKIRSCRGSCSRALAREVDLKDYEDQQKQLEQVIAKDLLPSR
T1 chain 2: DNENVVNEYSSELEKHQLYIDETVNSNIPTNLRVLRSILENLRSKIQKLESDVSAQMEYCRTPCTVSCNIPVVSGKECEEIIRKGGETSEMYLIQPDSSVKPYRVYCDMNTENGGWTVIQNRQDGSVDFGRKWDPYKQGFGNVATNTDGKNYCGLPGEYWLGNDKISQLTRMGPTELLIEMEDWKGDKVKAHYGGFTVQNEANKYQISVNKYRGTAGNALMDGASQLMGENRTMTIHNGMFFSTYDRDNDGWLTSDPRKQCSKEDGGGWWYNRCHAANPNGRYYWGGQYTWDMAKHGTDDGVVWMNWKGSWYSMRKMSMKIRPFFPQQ
T1 chain 3: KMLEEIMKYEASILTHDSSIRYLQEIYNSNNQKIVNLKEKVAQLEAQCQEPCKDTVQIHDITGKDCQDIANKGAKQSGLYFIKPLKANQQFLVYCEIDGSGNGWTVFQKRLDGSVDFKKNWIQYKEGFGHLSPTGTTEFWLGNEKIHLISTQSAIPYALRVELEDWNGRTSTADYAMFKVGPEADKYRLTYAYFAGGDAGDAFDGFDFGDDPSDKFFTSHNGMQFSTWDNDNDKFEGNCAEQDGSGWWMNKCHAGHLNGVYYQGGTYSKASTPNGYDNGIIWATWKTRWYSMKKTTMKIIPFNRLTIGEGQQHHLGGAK
T1 chain 4: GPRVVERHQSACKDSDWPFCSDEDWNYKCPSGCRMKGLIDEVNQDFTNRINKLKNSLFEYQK
T1 chain 5: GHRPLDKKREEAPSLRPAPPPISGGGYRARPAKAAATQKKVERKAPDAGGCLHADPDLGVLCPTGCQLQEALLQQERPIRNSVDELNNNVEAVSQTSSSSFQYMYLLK
T1 chain 6: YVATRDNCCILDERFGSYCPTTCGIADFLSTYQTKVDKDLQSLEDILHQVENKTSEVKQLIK

[4] = target: T1, DD(E) fragment of fibrin; test: affinity of optical contrast agent to fibrin DD(E) fragment
[5] = target: T1, DD(E) fragment of fibrin; test: affinity to DD(E) fragment of fibrin
[6] = target: DD(E) fragment of fibrin; test: affinity to soluble fibrin DD(E) fragment
[7] = target: DD(E) fragment of fibrin; test: affinity of the unlabelled peptide; target taken as fibrin DD(E) fragment
[8] = target: fibrin; test: Fibrin Affinity; method not stated

Kd [1]: 60 nM
Kd [2]: 55 nM
Molecule: Structure J: Fluor-Q-W-E-C-P-Y-G-L-C-W-I-Q (peptide)

Kd [3]: ≤ 10000 nM
Molecule: [Cha]PCDYYGTC[Bip]D (cysteine pairing not given here) [Cha-P-C-D-Y-Y-G-T-C-Bip-D]

Kd [4]: 97 nM
Molecule: fluorescein-[Ahx]GFHC[Hyp][Tyr(3-I)]DLCHI (disulfide 5-10 (inferred)) [Structure C: Fluor-Ahx-G-F-H-C-Hyp-Y(3-I)-D-L-C-H-I]

Kd [4]: 60 nM
Molecule: fluorescein-WFHCPYDLCHIL (disulfide 4-9 (inferred)) [Structure K: Fluor-W-F-H-C-P-Y-D-L-C-H-I-L]

Kd [2]: 99 nM
Molecule: fluorescein-[Ahx]FHC[Hyp][Tyr(3-I)]DLCHI (disulfide 4-9 (inferred)) [Structure B: Fluor-Ahx-F-H-C-Hyp-Y(3-I)-D-L-C-H-I]

Kd [4]: 119 nM
Molecule: fluorescein-KWFHC[Hyp][Tyr(3-I)]DLCHI (disulfide 5-10 (inferred)) [Structure H: Fluor-K-W-F-H-C-Hyp-Y(3-I)-D-L-C-H-I]

Kd [5]: ≤ 500 nM
Molecule: [Phe(4-OMe)]WC[Hyp][Tyr(3-I)]DLCHI (disulfide 3-8 (inferred)) [F(4-OMe)-W-C-Hyp-Y(3-I)-D-L-C-H-I]

Kd [1]: 200 nM
Molecule: {4‑methoxycoumarin}-QWECPYGLCWIQ (cysteine pairing not given here) [Compound N: 4-methoxycoumarin derivative of …]

Kd [4]: 212 nM
Molecule: fluorescein-KFHC[Hyp][Tyr(3-I)]DLCHI (disulfide 4-9 (inferred)) [Structure F: Fluor-K-F-H-C-Hyp-Y(3-I)-D-L-C-H-I]

Kd [2]: 136 nM
Molecule: fluorescein-[βAla]FHC[Hyp][Tyr(3-I)]DLCHI (disulfide 4-9 (inferred)) [Structure A: Fluor-beta-A-F-H-C-Hyp-Y(3-I)-D-L-C-H-I]

Kd [6]: 4700 nM
B1: Compound 32 (peptide)
peptide: LPCDYYGTCXD
modifications: not fully specified; Bip at 10; cyclized with thallium trifluoroacetate; C-terminus as -CO-NHCH2C6H4CH2NH2; Synthon #2 (bb(CO)DTPA chelates, Gd) coupled to the N- and C-terminal amines

Kd [4]: 90 nM
Molecule: fluorescein-[Ahx]GGFHC[Hyp][Tyr(3-I)]DLCHI (disulfide 6-11 (inferred)) [Structure E: Fluor-Ahx-G-G-F-H-C-Hyp-Y(3-I)-D-L-C-H-I]

Kd [1]: 2000 nM
Molecule: tetramethylrhodamine-QWECPYGLCWIQ (cysteine pairing not given here) [Compound L: tetramethylrhodamine derivative of …]

Kd [7]: 3000 nM
Ki [8]: 4700 nM
Molecule: QWECPYGLCWIQ […]

Kd [3]: ≤ 10000 nM
Molecule: LPCDYYGTCLD (not fully specified; cysteine pairing not given here) [L-P-C-D-Y-Y-G-T-C-L-D]

Kd [4]: 61 nM
Molecule: fluorescein-[Ahx]WFHC[Hyp][Tyr(3-I)]DLCHI (disulfide 5-10 (inferred)) [Structure D: Fluor-Ahx-W-F-H-C-Hyp-Y(3-I)-D-L-C-H-I]

From patent publication US20070185311A1 (EPIX MEDICAL INC A DELAWARE, published 2007)
